According to the Human Domainome abundance scans (Beltran et al. 2025):
± gives the uncertainty stated by the source.

Test: abundance fitness (aPCA) (normalised: wild type 0, dead -1); higher = more abundant; growth selection in yeast, the domain comes from the species named
Conditions: Homo sapiens

Substance | abundance fitness
Transcriptional activator Myb S202R, P10242 | -0.144 ± 0.063
Transcriptional activator Myb S202T, P10242 | 0.012 ± 0.11
Transcriptional activator Myb S202V, P10242 | -0.001 ± 0.064
Transcriptional activator Myb S202W, P10242 | -0.211 ± 0.083
Transcriptional activator Myb S202Y, P10242 | -0.218 ± 0.17
Transcriptional activator Myb S203A, P10242 | -0.01 ± 0.085
Transcriptional activator Myb S203C, P10242 | -0.112 ± 0.094
Transcriptional activator Myb S203D, P10242 | -0.079 ± 0.15
Transcriptional activator Myb S203E, P10242 | 0.079 ± 0.16
Transcriptional activator Myb S203F, P10242 | -0.29 ± 0.1
Transcriptional activator Myb S203G, P10242 | 0.072 ± 0.066
Transcriptional activator Myb S203H, P10242 | -0.264 ± 0.12
Transcriptional activator Myb S203K, P10242 | 0.14 ± 0.19
Transcriptional activator Myb S203L, P10242 | -0.042 ± 0.094
Transcriptional activator Myb S203M, P10242 | -0.054 ± 0.15
Transcriptional activator Myb S203N, P10242 | -0.108 ± 0.1
Transcriptional activator Myb S203P, P10242 | -0.139 ± 0.12
Transcriptional activator Myb S203Q, P10242 | 0.061 ± 0.13
Transcriptional activator Myb S203R, P10242 | -0.145 ± 0.074
Transcriptional activator Myb S203T, P10242 | 0.006 ± 0.1
Transcriptional activator Myb S203V, P10242 | 0.055 ± 0.082
Transcriptional activator Myb S203W, P10242 | -0.015 ± 0.097

Substance | abundance fitness
Transcriptional activator Myb S203Y, P10242 | -0.113 ± 0.15
Transcriptional activator Myb T145A, P10242 | -0.066 ± 0.061
Transcriptional activator Myb T145C, P10242 | -0.218 ± 0.16
Transcriptional activator Myb T145D, P10242 | 0.144 ± 0.15
Transcriptional activator Myb T145E, P10242 | 0.055 ± 0.12
Transcriptional activator Myb T145F, P10242 | -0.123 ± 0.25
Transcriptional activator Myb T145G, P10242 | -0.091 ± 0.061
Transcriptional activator Myb T145I, P10242 | 0.228 ± 0.14
Transcriptional activator Myb T145L, P10242 | -0.122 ± 0.13
Transcriptional activator Myb T145M, P10242 | 0.117 ± 0.12
Transcriptional activator Myb T145N, P10242 | -0.179 ± 0.26
Transcriptional activator Myb T145P, P10242 | -0.212 ± 0.12
Transcriptional activator Myb T145Q, P10242 | -0.171 ± 0.15
Transcriptional activator Myb T145R, P10242 | -0.232 ± 0.071
Transcriptional activator Myb T145S, P10242 | -0.042 ± 0.077
Transcriptional activator Myb T145V, P10242 | -0.007 ± 0.068
Transcriptional activator Myb T145W, P10242 | -0.318 ± 0.1
Transcriptional activator Myb T145Y, P10242 | -0.114 ± 0.23
Transcriptional activator Myb T148A, P10242 | -0.286 ± 0.039
Transcriptional activator Myb T148D, P10242 | -0.348 ± 0.043
Transcriptional activator Myb T148E, P10242 | -0.443 ± 0.065
Transcriptional activator Myb T148F, P10242 | -0.726 ± 0.046

Substance | abundance fitness
Transcriptional activator Myb T148G, P10242 | -0.31 ± 0.038
Transcriptional activator Myb T148H, P10242 | -0.556 ± 0.045
Transcriptional activator Myb T148K, P10242 | -0.212 ± 0.057
Transcriptional activator Myb T148L, P10242 | -0.505 ± 0.036
Transcriptional activator Myb T148M, P10242 | -0.462 ± 0.052
Transcriptional activator Myb T148N, P10242 | -0.271 ± 0.043
Transcriptional activator Myb T148P, P10242 | -0.597 ± 0.045
Transcriptional activator Myb T148Q, P10242 | -0.437 ± 0.055
Transcriptional activator Myb T148R, P10242 | -0.307 ± 0.035
Transcriptional activator Myb T148S, P10242 | -0.004 ± 0.034
Transcriptional activator Myb T148W, P10242 | -0.901 ± 0.058
Transcriptional activator Myb T148Y, P10242 | -0.766 ± 0.05
Transcriptional activator Myb T177A, P10242 | -0.137 ± 0.063
Transcriptional activator Myb T177C, P10242 | -0.138 ± 0.075
Transcriptional activator Myb T177D, P10242 | 0.077 ± 0.095
Transcriptional activator Myb T177E, P10242 | -0.013 ± 0.069
Transcriptional activator Myb T177F, P10242 | -0.79 ± 0.18
Transcriptional activator Myb T177G, P10242 | -0.12 ± 0.043
Transcriptional activator Myb T177I, P10242 | -0.477 ± 0.093
Transcriptional activator Myb T177K, P10242 | -0.204 ± 0.092
Transcriptional activator Myb T177L, P10242 | -0.42 ± 0.068
Transcriptional activator Myb T177M, P10242 | -0.44 ± 0.093

Substance | abundance fitness
Transcriptional activator Myb T177N, P10242 | -0.038 ± 0.12
Transcriptional activator Myb T177Q, P10242 | -0.183 ± 0.084
Transcriptional activator Myb T177R, P10242 | -0.267 ± 0.047
Transcriptional activator Myb T177S, P10242 | -0.003 ± 0.066
Transcriptional activator Myb T177V, P10242 | -0.371 ± 0.062
Transcriptional activator Myb T177W, P10242 | -0.533 ± 0.073
Transcriptional activator Myb T177Y, P10242 | -0.558 ± 0.17
Transcriptional activator Myb T188A, P10242 | -0.107 ± 0.046
Transcriptional activator Myb T188C, P10242 | -0.037 ± 0.088
Transcriptional activator Myb T188D, P10242 | -0.015 ± 0.057
Transcriptional activator Myb T188E, P10242 | 0.016 ± 0.056
Transcriptional activator Myb T188F, P10242 | -0.214 ± 0.14
Transcriptional activator Myb T188G, P10242 | -0.058 ± 0.032
Transcriptional activator Myb T188H, P10242 | -0.093 ± 0.1
Transcriptional activator Myb T188I, P10242 | 0.001 ± 0.092
Transcriptional activator Myb T188K, P10242 | -0.115 ± 0.061
Transcriptional activator Myb T188L, P10242 | -0.049 ± 0.053
Transcriptional activator Myb T188M, P10242 | 0.035 ± 0.08
Transcriptional activator Myb T188N, P10242 | -0.204 ± 0.11
Transcriptional activator Myb T188P, P10242 | -0.268 ± 0.099
Transcriptional activator Myb T188Q, P10242 | -0.089 ± 0.078
Transcriptional activator Myb T188R, P10242 | -0.166 ± 0.04

Substance | abundance fitness
Transcriptional activator Myb T188S, P10242 | -0.048 ± 0.053
Transcriptional activator Myb T188V, P10242 | -0.012 ± 0.044
Transcriptional activator Myb T188W, P10242 | -0.093 ± 0.054
Transcriptional activator Myb T188Y, P10242 | 0.034 ± 0.13
Transcriptional activator Myb V193A, P10242 | -0.074 ± 0.069
Transcriptional activator Myb V193C, P10242 | -0.138 ± 0.15
Transcriptional activator Myb V193D, P10242 | -0.166 ± 0.087
Transcriptional activator Myb V193E, P10242 | -0.138 ± 0.079
Transcriptional activator Myb V193F, P10242 | -0.091 ± 0.21
Transcriptional activator Myb V193G, P10242 | -0.041 ± 0.051
Transcriptional activator Myb V193H, P10242 | -0.033 ± 0.13
Transcriptional activator Myb V193I, P10242 | -0.066 ± 0.1
Transcriptional activator Myb V193K, P10242 | -0.154 ± 0.14
Transcriptional activator Myb V193L, P10242 | -0.089 ± 0.089
Transcriptional activator Myb V193N, P10242 | -0.032 ± 0.26
Transcriptional activator Myb V193P, P10242 | -0.198 ± 0.14
Transcriptional activator Myb V193Q, P10242 | -0.14 ± 0.16
Transcriptional activator Myb V193R, P10242 | -0.084 ± 0.059
Transcriptional activator Myb V193S, P10242 | -0.11 ± 0.066
Transcriptional activator Myb V193T, P10242 | -0.018 ± 0.11
